These results are taken from patent US20210009683A1.

This experiment deals with T1, CLEC-2 on washed mouse platelet (mouse) (UniProt Q9JL99).
T1 sequence (looked up): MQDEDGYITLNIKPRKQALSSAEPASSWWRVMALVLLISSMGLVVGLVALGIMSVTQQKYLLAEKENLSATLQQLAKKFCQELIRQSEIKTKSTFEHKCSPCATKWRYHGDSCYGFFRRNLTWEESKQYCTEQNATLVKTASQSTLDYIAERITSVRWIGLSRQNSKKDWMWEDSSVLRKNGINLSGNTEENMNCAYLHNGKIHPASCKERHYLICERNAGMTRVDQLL
Briefly: cell-based or functional assay.

Changes are numbered by the printed parent chain. Names may count otherwise.

B1: wild-type human Aggrus expressed in CHO cells (CHO/Aggrus-WT) (ligand, UniProt Q86YL7 23-162, looked up)
chain: ASTGQPEDDTETTGLEGGVAMPGAEDDVVTPGTSEDRYKSGLTTLVATSVNSVTGIRIEDLPTSESTVHAQEQSPSATASNVATSHSTEKVDGDTQTTVEKDGLSTVTLVGIIVGVLLAIGFIGAIIVVVMRKMSGRYSP
Molecule B1 registered a platelet aggregation-starting time (light transmittance, washed mouse platelet mixed with CHO cells) of 6 min.

B2: Aggrus-D48A expressed in CHO cells (CHO/Aggrus-D48A) (ligand, human, UniProt Q86YL7 23-162, looked up)
chain: B1 chain with D26A
For B2, the delay of the start of platelet aggregation against CHO/Aggrus-WT is 8 min and the platelet aggregation-starting time (light transmittance, washed mouse platelet mixed with CHO cells) was found to be 14 min.
